For assay [1], the target named is T1, human insulin receptor extracellular domain (HIR ECD), lectin affinity purified from transfected CHO cells (human, UniProt P06213 28-956, limits assumed).
T1 construct: extracellular domain; Secreted ECD purified on a wheat germ agglutinin column
The assay is described as follows: ELISA, HIR ECD plated; printed as ED50 (second assay, run with the Gln-192 allozyme). In general terms: An ELISA detects its analyte on a solid surface through an enzyme-linked reagent.
Experimental: (§1) The affinity of the HIRMAb-PON1 fusion protein for the HIR extracellular domain (ECD) was determined with an ELISA using the lectin affinity purified HIR ECD. Chinese hamster ovary (CHO) cells permanently transfected with the HIR ECD were grown in serum free media, and the HIR ECD was purified with a wheat germ agglutinin affinity column. The HIR ECD (0.2 ug/well) was plated on high binding 96-well plates, and the binding of the HIRMAb, or the HIRMAb-PON1 fusion protein to the HIR ECD was detected with a biotinylated goat anti-human IgG (H+L) antibody (0.3 μg/well), and the avidin-biotinylated peroxidase detection system.

Assay [2] deals with T1, human insulin receptor extracellular …. The experiment in a line: ELISA, HIR ECD plated, detection with biotinylated anti-human IgG; printed as ED50 (assay of FIG. 4).
Experimental: as §1
Assay [3] has the same target. The experiment in a line: ELISA, HIR ECD plated, detection with biotinylated anti-human IgG; printed as ED50 (assay of FIG. 4, Arg-192 allozyme).
Experimental: as §1
The target is the same in assay [4]. The experiment in a line: ELISA, HIR ECD plated; printed as ED50 (second assay, Gln-192 allozyme).
Experimental: as §1

B1: chimeric HIRMAb (chimeric monoclonal antibody to the human insulin receptor) (antibody, human IgG1, kappa)
heavy: not shown
light: DIQMTQSPSSLSASLGERVSLTCRASQDIGGNLYWLQQGPDGTIKRLIYATSSLDSGVPKRFSGSRSGSDYSLTISSLESEDFVDYYCLQYSSSPWTFGGGTKMEIKRTVAAPSVFIFPPSDEQLKSGTASVVCLLNNFYPREAKVQWKVDNALQSGNSQESVTEQDSKDSTYSLSSTLTLSKADYEKHKVYACEVTHQGLSSPVTKSFNRGEC
notes: Chimeric mouse/human IgG1 kappa; also called engineered HIRMAb
B1: the EC50 (as a rule, the concentration giving half of the maximal effect) in assay [1] came out at 0.48 nM; in assay [2], 0.55 nM.

B2: HIRMAb-PON1 fusion protein, Arg-192 allozyme (PON1 fused to the carboxyl terminus of the HIRMAb heavy chain) (antibody)
heavy: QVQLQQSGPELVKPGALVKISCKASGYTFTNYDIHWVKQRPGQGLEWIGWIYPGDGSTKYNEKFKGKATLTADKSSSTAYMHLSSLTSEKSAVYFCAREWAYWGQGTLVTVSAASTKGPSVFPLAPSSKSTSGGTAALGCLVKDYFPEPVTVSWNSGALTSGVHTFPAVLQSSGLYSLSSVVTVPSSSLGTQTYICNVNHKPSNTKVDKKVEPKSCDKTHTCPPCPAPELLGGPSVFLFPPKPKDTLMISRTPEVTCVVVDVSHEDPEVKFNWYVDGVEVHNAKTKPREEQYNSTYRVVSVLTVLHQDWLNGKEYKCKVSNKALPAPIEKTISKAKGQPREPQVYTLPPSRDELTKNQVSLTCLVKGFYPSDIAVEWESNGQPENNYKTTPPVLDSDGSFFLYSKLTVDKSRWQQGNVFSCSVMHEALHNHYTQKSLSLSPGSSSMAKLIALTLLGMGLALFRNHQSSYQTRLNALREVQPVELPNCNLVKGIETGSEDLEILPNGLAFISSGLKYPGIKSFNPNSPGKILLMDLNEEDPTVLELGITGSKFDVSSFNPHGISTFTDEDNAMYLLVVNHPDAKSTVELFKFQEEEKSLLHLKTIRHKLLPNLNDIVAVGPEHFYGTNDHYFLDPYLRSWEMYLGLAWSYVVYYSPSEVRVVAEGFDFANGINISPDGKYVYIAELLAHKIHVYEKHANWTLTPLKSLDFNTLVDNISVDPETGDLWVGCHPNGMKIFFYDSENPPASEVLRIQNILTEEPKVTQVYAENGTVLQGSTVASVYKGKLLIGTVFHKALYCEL
light: B1 light
notes: IgG-enzyme fusion antibody
B2: the EC50 in assay [3] was 1.1 nM. This lies in the single-digit nanomolar range.

B3: HIRMAb-PON1 fusion protein, Gln-192 allozyme (antibody, human IgG1, kappa)
heavy: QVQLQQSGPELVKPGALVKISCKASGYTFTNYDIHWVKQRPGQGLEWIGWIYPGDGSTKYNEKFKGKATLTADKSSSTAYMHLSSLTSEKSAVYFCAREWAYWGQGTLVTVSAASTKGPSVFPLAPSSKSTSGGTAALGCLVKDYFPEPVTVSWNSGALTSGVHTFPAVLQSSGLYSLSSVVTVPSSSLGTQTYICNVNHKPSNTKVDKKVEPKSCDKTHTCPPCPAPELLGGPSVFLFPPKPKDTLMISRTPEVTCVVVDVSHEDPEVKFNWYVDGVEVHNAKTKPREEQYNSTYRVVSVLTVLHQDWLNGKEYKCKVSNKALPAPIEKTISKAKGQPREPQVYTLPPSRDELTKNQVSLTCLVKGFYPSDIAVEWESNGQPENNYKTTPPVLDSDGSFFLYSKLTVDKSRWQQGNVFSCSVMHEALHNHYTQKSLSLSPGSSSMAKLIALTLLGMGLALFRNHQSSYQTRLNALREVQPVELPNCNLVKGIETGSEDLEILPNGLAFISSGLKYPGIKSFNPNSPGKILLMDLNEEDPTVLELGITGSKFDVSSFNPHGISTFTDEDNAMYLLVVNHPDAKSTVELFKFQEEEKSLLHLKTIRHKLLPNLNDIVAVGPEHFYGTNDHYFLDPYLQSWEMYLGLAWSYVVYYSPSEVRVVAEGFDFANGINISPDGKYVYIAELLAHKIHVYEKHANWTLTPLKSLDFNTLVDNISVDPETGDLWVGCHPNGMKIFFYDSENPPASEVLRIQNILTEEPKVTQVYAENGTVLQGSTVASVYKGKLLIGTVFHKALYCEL
light: B1 light
For the molecule B3, in assay [4], a half-maximal effect (EC50) was put at 0.96 nM.

The values are drawn from US20100098693A1 (published 2010).
